Experimental findings from paper PMC5778469 are described below.

The data set addresses T1, Cascade (type I-E effector complex) (Escherichia coli, UniProt Q46901;P76632;Q46899;Q46898;Q46897 1-502;1-160;1-363;1-224;1-199).
T1 sequence 1: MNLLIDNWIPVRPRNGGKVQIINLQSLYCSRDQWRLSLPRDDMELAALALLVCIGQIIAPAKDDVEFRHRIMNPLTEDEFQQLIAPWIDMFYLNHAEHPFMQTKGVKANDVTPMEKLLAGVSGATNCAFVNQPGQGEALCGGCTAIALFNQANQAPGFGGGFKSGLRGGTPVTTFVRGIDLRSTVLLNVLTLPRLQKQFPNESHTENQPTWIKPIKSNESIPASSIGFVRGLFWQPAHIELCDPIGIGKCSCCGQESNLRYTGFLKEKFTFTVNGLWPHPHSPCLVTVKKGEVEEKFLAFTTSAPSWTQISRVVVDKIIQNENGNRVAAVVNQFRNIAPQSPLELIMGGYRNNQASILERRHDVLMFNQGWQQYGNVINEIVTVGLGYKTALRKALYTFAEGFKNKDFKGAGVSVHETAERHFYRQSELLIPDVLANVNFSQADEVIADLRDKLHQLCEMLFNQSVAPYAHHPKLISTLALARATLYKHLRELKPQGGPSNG
T1 sequence 2: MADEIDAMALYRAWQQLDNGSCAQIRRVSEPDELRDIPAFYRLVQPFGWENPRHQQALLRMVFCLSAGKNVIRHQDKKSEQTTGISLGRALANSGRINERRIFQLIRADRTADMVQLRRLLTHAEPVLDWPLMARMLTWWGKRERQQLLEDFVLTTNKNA
T1 sequence 3: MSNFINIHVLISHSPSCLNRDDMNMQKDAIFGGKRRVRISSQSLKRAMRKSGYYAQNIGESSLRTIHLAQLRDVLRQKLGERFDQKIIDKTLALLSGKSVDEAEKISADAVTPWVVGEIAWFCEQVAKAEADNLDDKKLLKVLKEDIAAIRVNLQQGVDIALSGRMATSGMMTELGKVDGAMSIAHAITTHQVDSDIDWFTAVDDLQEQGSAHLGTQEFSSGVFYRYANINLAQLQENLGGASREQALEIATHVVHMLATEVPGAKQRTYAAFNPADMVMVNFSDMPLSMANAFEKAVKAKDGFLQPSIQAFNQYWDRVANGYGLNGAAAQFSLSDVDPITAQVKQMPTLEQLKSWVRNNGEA
T1 sequence 4: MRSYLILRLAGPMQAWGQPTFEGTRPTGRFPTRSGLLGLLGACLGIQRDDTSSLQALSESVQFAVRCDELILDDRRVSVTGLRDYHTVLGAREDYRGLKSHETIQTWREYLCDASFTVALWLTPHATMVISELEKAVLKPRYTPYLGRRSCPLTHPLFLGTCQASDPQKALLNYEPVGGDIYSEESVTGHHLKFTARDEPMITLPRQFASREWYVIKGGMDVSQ
T1 sequence 5: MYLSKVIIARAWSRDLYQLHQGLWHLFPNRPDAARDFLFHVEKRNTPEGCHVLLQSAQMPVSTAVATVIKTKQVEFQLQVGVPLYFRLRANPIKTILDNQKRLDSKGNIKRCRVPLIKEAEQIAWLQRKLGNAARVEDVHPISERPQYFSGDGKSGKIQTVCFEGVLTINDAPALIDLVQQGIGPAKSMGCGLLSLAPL
The data set is described as follows: EMSA.

B1: sp8 target, 5-ghmC, with Cascade crRNA sp8 (dsDNA)
DNA 1: TTCATTTGATGCTCGATGAGTTTTTCTAAAAGCTGACGACCGGGTCTCCGCAAGTGGCACTTTTCCATGACCAAAATCCCTTAACGTGAGTTTTCGTT
DNA 2: AACGAAAACTCACGTTAAGGGATTTTGGTCATGGAAAAGTGCCACTTGCGGAGACCCGGTCGTCAGCTTTTAGAAAAACTCATCGAGCATCAAATGAA
modifications: glucosyl-5-hydroxymethylcytosine replacing C; exact positions not stated
On to B1, for which the binding result is on record as “no binding”.
